The values that follow come from US20110245326, “Post-Transcriptional Regulation Of RNA-Related Processes Using Encoded Protein-Binding RNA Aptamers” (published 2011).

Series [1] has as its target T1, Tetracycline repressor protein (TetR) (UniProt P04483 P04483:1-207). Nature of the series: flow; 50 mM Tris pH 8.0, 50 mM KCl, 5 mM MgCl2, room temperature; repression NS cell-free, 9% yeast. The settings on record: tags: N-terminal T7 tag, C-terminal His6 (pET24a); chain copies: 2 (inferred, TetR dimer); label: 3' fluorescein. The method, then: (§1) Quantitative affinity measurements of aptamer interactions with TetR were performed as described previously. Brodsky et al, “A microbead-based system for identifying and characterizing RNA-protein interactions by flow cytometry” Mol Cell Proteomics 1:922-929 (2002); and Warren et al, “A novel binding assay to assess specificity of monoclonal antibodies” J Immunol Methods 305:33-38 (2005). Dynabeads TALON® (Invitrogen) (1 μL) were washed with Affinity Binding Buffer (ABB) (BB+10 μg/mL BSA) and centrifuged at 250×g for 2 mins. Beads were resuspended in ABB and incubated with 60 μg of purified His₆-tagged TetR for 1 h at room temperature. TetR-coated beads were washed twice and resuspended in ABB. Beads were counted by microscopy, and 70,000 beads were placed per well in a 96-well microplate. Fluorescein-labeled RNA in ABB was added to the beads. […] The median fluorescence intensities of the samples were plotted against RNA or DNA concentration using GraphPad Prism® 5 (GraphPad Software, Inc.).
(§2) This example presents a data summary of the various constructs tested for TetR-aptamer binding, cell-free translation, and yeast in vivo expression experiments. Translational repression is reported as the luminescence intensity of the uninduced condition relative to the induced condition. The binding of RNA aptamers to TetR was measured by flow cytometry. […]

For series [2], the target named is T1, Tetracycline repressor protein (TetR). Nature of the series: flow; IRE does not bind TetR with high affinity; no translation repression. The settings on record: tags: N-terminal T7 tag, C-terminal His6 (pET24a); chain copies: 2 (inferred, TetR dimer); hairpin. The method, then: Quantitative affinity measurements of aptamer interactions with TetR were performed as described previously. Brodsky et al, “A microbead-based system for identifying and characterizing RNA-protein interactions by flow cytometry” Mol Cell Proteomics 1:922-929 (2002); and Warren et al, “A novel binding assay to assess specificity of monoclonal antibodies” J Immunol Methods 305:33-38 (2005). Dynabeads TALON® (Invitrogen) (1 μL) were washed with Affinity Binding Buffer (ABB) (BB+10 μg/mL BSA) and centrifuged at 250×g for 2 mins. Beads were resuspended in ABB and incubated with 60 μg of purified His₆-tagged TetR for 1 h at room temperature. TetR-coated beads were washed twice and resuspended in ABB. Beads were counted by microscopy, and 70,000 beads were placed per well in a 96-well microplate. Fluorescein-labeled RNA in ABB was added to the beads. Nonspecific RNA interactions were reduced by adding 10 μg/mL yeast tRNA. The binding reaction proceeded with moderate shaking for 4 h at room temperature. […] The median fluorescence intensities of the samples were plotted against RNA or DNA concentration using GraphPad Prism® 5 (GraphPad Software, Inc.).
Several aptamers, but not the iron-responsive element, bind TetR with high affinity. […] Reporter expression was measured in a rabbit reticulocyte cell-free system or in S. cerevisiae in the presence and absence of the inducer aTc.

Series [3] has the same target. Nature of the series: flow; 50 mM Tris pH 8.0, 50 mM KCl, 5 mM MgCl2, room temperature; repression 56% cell-free, 75% yeast. The settings on record: tags: N-terminal T7 tag, C-terminal His6 (pET24a); chain copies: 2 (inferred, TetR dimer); label: 3' fluorescein. As for the experimental part: as §1, §2
Series [4] shares this target. Nature of the series: flow; 50 mM Tris pH 8.0, 50 mM KCl, 5 mM MgCl2, room temperature; no significant translation repression. The settings on record: tags: N-terminal T7 tag, C-terminal His6 (pET24a); chain copies: 2 (inferred, TetR dimer); label: 3' fluorescein. As for the experimental part:
as §1, §2

For series [5] the target is unchanged. Kind of series: flow; 50 mM Tris pH 8.0, 50 mM KCl, 5 mM MgCl2, room temperature; repression 91% cell-free, 81% yeast. The settings on record: tags: N-terminal T7 tag, C-terminal His6 (pET24a); chain copies: 2 (inferred, TetR dimer); label: 3' fluorescein; stem-loop. As for the experimental part: as §1, §2
The target is the same in series [6]. Kind of series: flow; binding listed as NS; no translation repression. The settings on record: tags: N-terminal T7 tag, C-terminal His6 (pET24a); chain copies: 2 (inferred, TetR dimer); label: 3' fluorescein. As for the experimental part: as §1, §2

T1 sequence (P04483 whole entry, one chain of several): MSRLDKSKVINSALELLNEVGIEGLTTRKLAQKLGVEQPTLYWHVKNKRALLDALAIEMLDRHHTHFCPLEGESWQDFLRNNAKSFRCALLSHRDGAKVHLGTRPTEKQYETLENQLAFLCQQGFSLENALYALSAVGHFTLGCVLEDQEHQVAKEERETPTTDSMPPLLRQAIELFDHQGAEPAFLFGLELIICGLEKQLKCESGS

B1: 5-18.13 (ssRNA)
RNA: GGGAGCUGAGAAUAAACGCUCAAUAGGGAGAGAACUGUGUCAGAAUGUAGUGAACCAGACACGGAGUGGAGUAUUCGACAUCAGGCCCGGAUCCGGC
Take B1: in series [1], the affinity, expressed as Kd, was 0.45 nM.

Regarding CUUAAGCUUCAACAGUGCUUGAACUUAAG (ssRNA) [Iron Responsive Element (IRE)], in series [2], the binding result is recorded as “no binding”.

B2: 5-1.13 (ssRNA)
RNA: GGGAGCUCAGAAUAAACGCUCAACUCCUGUAGUGAAGGCAGAGAAAGGUCGAUACGGACGGAAUGUGAUGGCCUUCGACAUCAGGCCCGGAUCCGGC
Molecule B2 displayed an equilibrium dissociation constant (Kd) in series [3] of 0.37 nM.

B3: 5-29.13a (ssRNA)
RNA: GGGAGCUCAGAAUAAACGCUCAACUUGCUGCAGAGGGUCGAGAAUAUGUGUGACACUGCGUCGACGGGUUAAGUUCGACAUCAGGCCCGGAUCCGGC
With B3, the Kd in series [4] came out at 2.77 nM.

B4: 5-14.7b (ssRNA)
RNA: GGGAGCUGAGAAUAAACGCUCAACAGGAAACAGCAAGACAAACGAUGGGGAGCGUAAGACUGCGAGUGUCGGAUUCGACAUCAGGCCCGGAUCCGGC
In series [4], B4 yielded a dissociation constant Kd of 1.44 nM.

B5: 5-1.2 (ssRNA)
RNA: GGAUCCAGGCAGAGAAAGGUCGAUACGGACGGAAUGUGAUGGCCUGGAUCC
Consider B5, for which the Kd in series [5] came to 1.6 nM.

B6: 5-1.2m2 (ssRNA)
RNA: GGAUCCAGGCAGUGUAAGGUCGAUACGGACGGAAUGUGAUGGCCUGGAUCC
Regarding B6, the binding result in series [6] is reported as “no binding”.
